We go through three molecules from patent US20240150474A1 (Regeneron, published 2024).

The chains are these.
B1: REGN 5167 (antibody, human IgG4 S228P, kappa, V domains shown)
VH: QLQLQESGPGLVKPSETLSLTCTVSGGSITSSSYYWAWIRQPPGKGLEWIGKIYYSGSTHYNPSLKSRVTISVDTSKNQFSLKLSSVTAADTAVYYCARVGGHGYGDSAGLAFDIWGQGTMVTVSS
VL: EIVLTQSPGTLSLSPGERATLSCRASQSVSSAFLAWYQQKPGQAPRLLIYGASYRHTGIPDRFSGSGSGTDFTLTISRLEPEDFAVYYCQHYGVGPRTFGGGTKVEIKR
notes: also called REGN 5167-L1
B2: REGN 5166 (antibody, human IgG4 S228P, kappa, V domains shown)
VH: QVQLVESGGGVVQPGRSLRLSCAASGFTFSAYWMHWVRQAPGKGLEWVAVISYDGSNKYYADSVKGRFTISRDHSKNTLYLQMNSLRAEDTAVYYCAKGDAYDSWRILLGGDYYGMDVWGQGTTVTVSS
VL: EIVLTQSPGTLSLSPGERATLSCRASQSVSSSYLAWYQQKPGQAPRPLIYGASSRATGIPDRFSGSGSGTDFTLTISRLEPEDFAVYYCQQGGDAPPYTFGGGTKVEIKR
notes: also called REGN 5166-L1
B3: REGN 5168 (antibody, human IgG4 S228P, kappa, V domains shown)
VH: QVQLVQSGAEVKEPGASVKVSCKASGYTFAEYYMHWVRQAPGQGLEWMGAINPSGSHTSYAQKFQGRVTMTRDTSTSTVYMELSSLRSEDTAVYYCARSISGKRGGDYYGMDVWGQGTTVTVSS
VL: DIQMTQSPSTLSASVGDRVTITCRASQSISSWLAWYQQKPGKAPKLLIYKASSLESGVPSRFSGSGSGTEFTLTISSLQPDDFATYYCQQYSIFPFTFGGGTKVEIKR
notes: also called REGN 5168-L1

One test has as its target T1, full length human ACVR1 (amino acids 1-509, R206H, of accession #Q04771) on HEK293/BRE-luc/hACVR1-R206H-clone … (human, UniProt Q04771 21-509).
T1 construct: Expressed as amino acids 1-509; also called HEK293/hACVR1-R206H
T1 sequence: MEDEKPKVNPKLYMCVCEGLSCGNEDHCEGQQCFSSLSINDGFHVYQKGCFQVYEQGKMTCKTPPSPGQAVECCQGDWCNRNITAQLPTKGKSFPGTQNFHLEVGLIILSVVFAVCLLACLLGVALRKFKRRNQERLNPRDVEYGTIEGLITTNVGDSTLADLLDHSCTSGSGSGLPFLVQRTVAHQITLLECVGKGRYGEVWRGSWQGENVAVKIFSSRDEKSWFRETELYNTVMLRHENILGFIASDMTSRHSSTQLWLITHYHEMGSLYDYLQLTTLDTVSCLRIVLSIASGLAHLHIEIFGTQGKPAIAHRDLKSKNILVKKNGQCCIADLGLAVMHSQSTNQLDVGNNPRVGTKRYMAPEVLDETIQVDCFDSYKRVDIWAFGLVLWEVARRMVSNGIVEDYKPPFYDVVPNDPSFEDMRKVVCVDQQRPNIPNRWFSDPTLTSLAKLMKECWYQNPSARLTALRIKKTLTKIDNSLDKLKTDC
Briefly: flow cytometry, 70 nM antibody on HEK293/hACVR1-R206H cells, 4C. As to the method:
To assess binding of the anti-ACVR1 antibodies of the invention to ACVR1 receptors expressed on the cell surface, 70 nM of the antibodies were incubated with 5×10⁵ cells/well at 4° C. for 30 minutes in PBS (without calcium and magnesium) containing 2% FBS (flow buffer). […] Cells were fixed using BD CytoFix™ (Becton Dickinson, # 554655) and analyzed on IQue® Flow Cytometer (Intellicyt®). Unstained and secondary antibody alone controls were also tested on cells. The results were analyzed using ForeCyt® (IntelliCyt®) software to determine the geometric means of fluorescence for viable cells and the binding ratio was calculated by normalizing the geometric mean value of the test condition by the geometric mean value of the corresponding unstained cells.
(In general: Flow cytometry measures light scatter and fluorescence of single cells or particles in a stream.)
On to B1, for which the “MFI-Normalized to Unstained Control” value is 1870 fold.

Turning to B2, the “MFI-Normalized to Unstained Control” value is 2000 fold.

On to B3, for which the “MFI-Normalized to Unstained Control” value was found to be 2250 fold.

The next test has as its target T2, mouse ACVR1 extracellular domain expressed with a C-terminal myc-myc-hexahistidine tag (mouse).
T2 construct: also called mACVR1-mmh; mACVR1.mmh
T2 chain: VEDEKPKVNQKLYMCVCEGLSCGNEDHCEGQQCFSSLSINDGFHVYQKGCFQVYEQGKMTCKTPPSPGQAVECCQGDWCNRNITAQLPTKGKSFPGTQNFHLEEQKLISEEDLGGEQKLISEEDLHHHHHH
Briefly: SPR Biacore T200, mAb captured by anti-human Fc, mACVR1-mmh injected, 37C. As to the method: (§1) Equilibrium dissociation constants (KD) for ACVR1 binding to purified anti-ACVR1 monoclonal antibodies were determined using a real-time surface plasmon resonance (SPR) based Biacore T200 biosensor. All binding studies were performed in 10 mM HEPES, 150 mM NaCl, 3 mM EDTA, and 0.05% v/v surfactant Tween-20, pH 7.4 (HBS-EP) running buffer at […]. The Biacore CM5 sensor surface was first derivatized by amine coupling with a monoclonal mouse anti-human Fc antibody (REGN2567) to capture anti-ACVR1 monoclonal antibodies. Different concentrations of ACVR1 reagents, human ACVR1 extracellular domain expressed with a C-terminal myc-myc-hexahistidine tag (hACVR1-mmh; REGN3111, SEQ ID NO: 63), mouse ACVR1 extracellular domain expressed with a C-terminal myc-myc-hexahistidine tag (mACVR1-mmh; REGN3407, SEQ ID NO: 65), human ACVR1 extracellular domain expressed with a C-terminal mouse IgG2a Fc tag (hACVR1-mFc; REGN3112, SEQ ID NO: 64); and mouse ACVR1 extracellular domain expressed with a C-terminal mouse IgG2a Fc tag (mACVR1-mFc, R&D system), at concentrations ranging from 0.41 nM to 100 nM in a series of 3-fold dilutions prepared in HBS-EP running buffer were injected at a flow rate of 50 μL/min for 1.5 minutes. The dissociation of different ACVR1 reagents bound to anti-ACVR1 monoclonal antibodies was monitored for 20 minutes in HBS-EP running buffer. At the end of each cycle, the anti-ACVR1 monoclonal antibodies capture surface was regenerated using a 12 sec injection of 20 mM H3PO4. The association rate (ka) and dissociation rate (kd) were determined by fitting the real-time binding sensorgrams to a 1:1 binding model with mass transport limitation using Scrubber 2.0c curve-fitting software. Binding dissociation equilibrium constant (KD) and dissociative half-life (t½) were calculated from the kinetic rates as: […]
(§2) Binding kinetics parameters for different ACVR1 reagents to anti-ACVR1 monoclonal antibodies of the invention at 37° C. are shown in Table 5 through Table 8.
In general terms: In SPR one partner is held on a chip, and binding of the other changes the refractive index at the surface.
Consider B1, for which the “100 nM Ag Bound (RU)” value came out at 43 RU; the equilibrium dissociation constant (Kd) (commonly the equilibrium constant for the complex coming apart) was found to be 0.226 nM; the koff – broadly, the first-order rate constant of dissociation – was determined as 0.000161 s⁻¹; the kon (as a rule, the second-order rate constant of association) is 713000 M⁻¹ s⁻¹. The t½ (commonly how long it takes for the measured level to halve) was found to be 1.2 h.

On to B2, for which the “100 nM Ag Bound (RU)” value is 43 RU, binding was put at a Kd of 0.268 nM, the koff was 0.000181 s⁻¹ and the kon was 674000 M⁻¹ s⁻¹. This molecule had a t½ of 1.07 h.

Take B3: the “100 nM Ag Bound (RU)” value is 42 RU, the dissociation constant Kd came to 1.24 nM, the koff was found to be 0.00167 s⁻¹ and the kon was 1.34e+06 M⁻¹ s⁻¹. This molecule returned a t½ of 0.117 h.

The target in a further test is T3, mouse ACVR1 extracellular domain expressed with a C-terminal mouse IgG2a Fc tag (mouse, UniProt P37172 21-123).
T3 construct: extracellular domain; Bought from R&D Systems; also called mACVR1-mFc; R&D System 6506-RA-100; not shown: mouse IgG2a Fc tag
T3 sequence (looked up): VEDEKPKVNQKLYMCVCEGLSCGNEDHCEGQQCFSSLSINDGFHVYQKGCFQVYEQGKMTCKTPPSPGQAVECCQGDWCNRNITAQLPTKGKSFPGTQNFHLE
Nature of the test: SPR Biacore T200, mAb captured by anti-human Fc, mACVR1-mFc injected, 37C. As to the method: as §1, §2
Consider B1, for which the “100 nM Ag Bound (RU)” value is 135 RU, the Kd was 0.0192 nM, the off-rate (koff) was 3.63e-05 s⁻¹ and the kon was 1.89e+06 M⁻¹ s⁻¹. The t½ was determined as 5.3 h.

Turning to B2, the “100 nM Ag Bound (RU)” value was determined as 134 RU, the equilibrium dissociation constant (Kd) turned out to be 0.0179 nM, the koff amounted to 3.63e-05 s⁻¹ and the association rate constant (kon) came to 2.03e+06 M⁻¹ s⁻¹. The molecule further gave a t½ of 5.3 h.

As to B3, the “100 nM Ag Bound (RU)” value amounted to 135 RU, the Kd worked out at 0.0362 nM, the off-rate constant (koff) came out at 0.000111 s⁻¹ and the kon turned out to be 3.06e+06 M⁻¹ s⁻¹. The t½ stood at 1.73 h.

The target in the next test is T4, dimeric human ACVRL1 (human, UniProt P37023 22-118, limits assumed).
T4 construct: Construct and dimerising part not described; also called Human Receptor ACVRL1
T4 sequence (P37023 22-118 limits assumed): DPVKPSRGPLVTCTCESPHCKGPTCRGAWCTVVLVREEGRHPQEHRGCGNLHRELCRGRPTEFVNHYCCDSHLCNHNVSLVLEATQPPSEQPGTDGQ
Briefly: SPR Biacore T200, mAb captured by anti-human Fab, dimeric receptor injected, 25C. As to the method:
(§3) ACVR1 mAbs were tested for cross-reactivity to a panel of bone morphogenic protein type 1 receptors including human and mouse ACVR1, BMPR1A, and BMPR1B, as well as ACVRL1 on a Biacore T200 as follows. In order to measure the specificity of ACVR1 mAbs, ACVR1 mAbs were captured with anti-human Fab immobilized on a CM5 chip. 100 nM or 10 nM of dimeric human or mouse ACVR1, ACVRL1, BMPR1A or BMPR1B were injected at 30 μL/min for 2 min (duplicate injections) and the experiment was performed at 25° C. Binding of different receptors to the captured mAb was determined using Scrubber 2.0c software.
For the molecule B1, the binding result was “no binding (tested: 100 nM)”.

Regarding B2, the binding result was “no binding (tested: 100 nM)”.

Turning to B3, the binding result was “no binding (tested: 100 nM)”.

Another test addresses T5, dimeric mouse BMPR1B (mouse, UniProt P36898 14-126, limits assumed).
T5 construct: Construct and dimerising part not described; also called Mouse Receptor BMPR1B
T5 sequence (looked up): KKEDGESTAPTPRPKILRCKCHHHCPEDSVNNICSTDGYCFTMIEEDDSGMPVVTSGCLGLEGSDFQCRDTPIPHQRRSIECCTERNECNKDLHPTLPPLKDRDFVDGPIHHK
Described as above. The protocol:
as §3
Turning to B1, the binding result is “no binding (tested: 100 nM)”.

Take B2: the binding result is given as “no binding (tested: 100 nM)”.

As to B3, the binding result is “no binding (tested: 100 nM)”.
